# What was measured:
# native gel or EMSA = target: the molecule itself; test: native gel or EMSA
# [1] = target: the molecule itself; test: non-reducing SDS-PAGE with western blot
Protein,stoichiometry N (native gel or EMSA),stoichiometry N [1]
"BirA*-Flag-Prdx2 (natural protein, UniProt P32119 1-198, looked up) MASGNARIGKPAPDFKATAVVDGAFKEVKLSDYKGKYVVLFFYPLDFTFVCPTEIIAFSNRAEDFRKLGCEVLGVSVDSQFTHLAWINTPRKEGGLGPLNIPLLADVTRRLSEDYGVLKTDEGIAYRGLFIIDGKGVLRQITVNDLPVGRSVDEALRLVQAFQYTDEHGEVCPAGWKPGSDTIKPNVDDSKEYFSKHN",10,2
"His-Prdx2 (natural protein, UniProt P32119 1-198, looked up) MASGNARIGKPAPDFKATAVVDGAFKEVKLSDYKGKYVVLFFYPLDFTFVCPTEIIAFSNRAEDFRKLGCEVLGVSVDSQFTHLAWINTPRKEGGLGPLNIPLLADVTRRLSEDYGVLKTDEGIAYRGLFIIDGKGVLRQITVNDLPVGRSVDEALRLVQAFQYTDEHGEVCPAGWKPGSDTIKPNVDDSKEYFSKHN",10,2

# Source: PMC8346688 (Redox Biology, 2021)
